# Measurements taken from patent publication US20130028978A1, “COMPOSITIONS AND METHODS FOR WOUND TREATMENT” (The Trustees of Columbia University in the City of New York, priority 2009, published 2013).
# “Also recorded” adds a separate entry of the source.
# B1: CCN2/CTGF: recombinant human connective tissue growth factor (BioVendor); 36-38 kDa cysteine-rich protein of the CCN family; SEQ ID NO: 1 (protein, listed as Homo sapiens)
# chain: MTAASMGPVRVAFVVLLALCSRPAVGQNCSGPCRCPDEPAPRCPAGVSLVLDGCGCCRVCAKQLGELCTERDPCDPHKGLFCDFGSPANRKIGVCTAKDGAPCIFGGTVYRSGESFQSSCKYQCTCLDGAVGCMPLCSMDVRLPSPDCPFPRRVKLPGKCCEEWVCDEPKDQTVVGPALAAYRLEDTFGPDPTMIRANCLVQTTEWSACSKTCGMGISTRVTNDNASCRLEKQSRLCMVRPCEADLEENIKKGKKCIRTPKISKPIKFELSGCTSMKTYRAKFCGVCTDGRCCTPHRTTTLPVEFKCPDGEVMKKNMMFIKTCACHYNCPGDNDIFESLYYRKMYGDMA
# Experiments:
# keloid cell = test: Keloid cell matrix synthesis; assay type: cell-based; settings: 0, 50, 100, 200, 500 ng/ml
# [1] = tested on: MSCs or MSC-derived fibroblasts (MSC-Fb); test: Myofibroblastic differentiation: αSMA expression by immunofluorescence and flow cytometry; assay type: cell-based, human
# Protocol: MSC-derived fibroblasts were subjected to 5 ng/mL recombinant human TGFβ1 (R&D Systems, Minneapolis, Minn.) for 7 days. Undifferentiated hMSCs were treated with TGFβ1 as control. The expression of αSMA (Abcam, Cambridge, Mass.) was evaluated by immunofluorescence with rhodamine-phalloidin (Invitrogen, Carlsbad, Calif.). The number of αSMA+ cells was quantified by flow cytometry.
# Briefly, cells were trypsinized, counted, resuspended into 1×10^6 cells/tube and fixed in […] formaldehyde. Following washing in 0.1% triton, the cells were incubated with αSMA primary antibody (Abcam, Cambridge, Mass.) for 30 min. Following centrifugation at 400 g for 5 min, the cells were incubated with fluorochrome-labeled secondary antibody (Abcam, Cambridge, Mass.) for 30 min in the dark, and resuspended in PBS supplemented with 3% BSA and 1% sodium azide. The samples were then analyzed using a multifunctional cell sorter (FACSAria™ II; BD Biosciences, San Jose, Calif.).
# [2] = tested on: MSCs in collagen type I gel; test: Collagen gel contraction assay; assay type: cell-based, human; settings: cell-populated collagen lattices, up to 7 days
# Protocol: Neutralized collagen type I (2 mg/mL) (R&D Systems, Minneapolis, Minn.) was mixed thoroughly with 1×10^6/mL MSCs, MSC-Fb or αSMA+ cells. Cell-populated collagen solution was cast in 24-well plates for 1 hr at 37° C. to induce gelation. Upon 48-hr incubation, cell-populated collagen lattices were physically detached and allowed to float freely in medium. Up to the tested 7 days, the diameters of cell-populated collagen lattices were measured on digital images.
# [3] = tested on: calvarial suture mesenchymal cells; test: Fibroblastic differentiation of calvarial suture mesenchymal cells; assay type: cell-based, rat; settings: 100 ng/mL, cells from p7 patent calvarial sutures
# Protocol: To isolate calvarial mesenchymal cells, the posterior interfrontal suture excluding calvarial bones was carefully dissected from p7 rat calvaria using surgical scissors. The overlying periosteum and the underlying dura mater were removed under dissection microscope. The isolated suture mesenchyme was lysed using 2 mg/mL collagenase for 1 hr at 37° C., and filtered with a tissue strainer (Fisher, Pittsburgh, Pa.). After centrifugation, the collected cells were counted using trypan blue, plated at 20,000-30,000 cells per 6-well plate, and allowed to attach for about 5 days, followed by medium change every 2-3 days until confluence. P1 or P2 calvarial cells were induced for osteogenic, chondrogenic, adipogenic, and fibroblastic differentiations for 4 wks as described below.
# [4] = tested on: calvarial suture explants; test: Ex vivo modulation of calvarial morphogenesis in organ culture; parameters: species or system Sprague-Dawley rats
# Protocol: Calvarial explants, including frontal and parietal bones with intervening interfrontal, coronal and sagittal sutures were harvested with intact dura mater from p10 male Sprague-Dawley rats (Harlan, Indianapolis, Ind.). Isolated calvaria were placed in 12-well tissue culture plates with serum-free medium supplemented with 0 or 50 ng/mL recombinant human CCN2/CTGF (35), with medium change every 2 days. The CCN2/CTGF concentration was determined (data not shown). Five to 25 days following CCN2/CTGF treatment, Tn-C contents in supernatant were assayed using ELISA. Explant-cultured calvarial sutures were sectioned sagittally for H&E staining and immunohistochemistry. Calvarial sutures were scanned with pCT (vivaCT 40; Scanco, Southeastern, Pa.) to measure suture width.
# [5] = tested on: Human mesenchymal stem cells (hMSCs); test: Real-time quantitative PCR of MSC, fibroblastic, osteogenic, chondrogenic and myofibroblastic markers in CCN2/CTGF-treated hMSCs; assay type: cell-based
# Protocol: (§1) Two to four weeks following CCN2/CTGF treatment, collagen type I and tenascin-C (Tn-C) were assayed by ELISA using commercial kits (Chondrex, Redmond, Wash. and IBL-America, Minneapolis, Minn.). Collagen type I matrix was lysed using 0.5 M acetic acid. Collagen deposition was visualized using Trichrome staining. Total RNA was isolated using Trizol from CCN2/CTGF-treated hMSCs. Following lysing with Trizol, samples were incubated for 5 min at RT. A total of 0.2 mL chloroform per mL Trizol was added, and followed by mixing and incubation for 3 min. After centrifugation at 12,000×g and 4° C. for 15 min, the upper phase was transferred into a new tube with 500 μL isopropanol added. After 10 min incubation and another centrifugation for 10 min at 12,000×g, the supernatant was discarded. The pellet was washed with 1 mL 75% ethanol and dried for 5-10 min. RNA samples were eluted in 50 μL DEPC-water, assessed for concentration and purity at 260 and 280 nm, and stored at −80° C. prior to reverse transcription. All RNA samples were reverse transcribed using a kit (Applied Biosystems, Foster City, Calif.). For mRNA quantification, real-time quantitative PCR reactions with the cDNA samples were performed using 7300 Real Time PCR System TaqMan® gene expression assays (Applied Biosystems, Foster City, Calif.). Commercially available primers and probes for human collagen types I and III, Tn-C, fibronectin (FN), matrix metallopeptidase-1 (MMP-1), fibroblastic specific protein 1 (FSP1), and vimentin were used (49, 50). Collagen type II (Col-II) and osteocalcin (OC) were selected as chondrogenic and osteogenic differentiation markers, respectively. CD29, CD44, CD105, CD106, CD117, BMPR, and sca1 were selected as MSC markers (30, 31). GAPDH was used as housekeeping gene.
# [6] = tested on: Human mesenchymal stem cells (hMSCs); test: CCN2/CTGF fibroblastic differentiation of hMSCs: collagen deposition (Trichrome staining), collagen type I and tenascin-C ELISA; assay type: cell-based
# Text: Human mesenchymal stem cells (hMSCs) were isolated from fresh whole bone marrow samples of two anonymous adult donors (age range: 20-25 yrs old) (AllCells, Berkeley, Calif.). Mononucleated and adherent cells were purified by centrifugation through a density gradient (Ficoll-Paque) per our prior methods (30) and using negative selection following manufacturer's protocols (RosetteSep, StemCell Technologies, Vancouver, Canada) to remove hematopoietic cells and other differentiated cells.
# Briefly, bone marrow was transferred to a 50 mL tube, followed by addition of […] of RosetteSep and incubation for 20 min. Then 15 mL PBS in 2% fetal bovine serum (FBS) and 1 mM ethylenediaminetetraacetic acid (EDTA) were added to a total volume of ˜30 mL. The sample was layered on 15 mL Ficoll-Paque and centrifuged 25 min at 3000×g. The entire layer of enriched cells was removed from Ficoll-Paque interface. The cocktail was centrifuged at 1000 rpm for 10 min. Collected cells were counted using trypan blue, plated at 0.5-1 million cells per 100 mm dish and allowed to attach for about 5 days, followed by regular medium change every two days. At 80-90% confluence, cells were trypsinized, centrifuged, resuspended in growth medium as passage 1 (P1) cells, and incubated in 5% CO2 at 37° C., with fresh medium changes every 3-4 days. Growth medium was defined as Dulbecco's Modified Eagle's Medium-Low Glucose (DMEM-LG; Sigma, St. Louis, Mo.), 1% antibiotic (1× Antibiotic-Antimycotic, including […] Penicillin G sodium, 10 mg/mL Streptomycin sulfate and 0.25 μg/mL amphotericine B) (Gibco, Invitrogen, Carlsbad, Calif.) and 10% Fetal Bovine Serum (FBS; Atlanta Biologicals, Norcross, Ga.).
# P3 or P4 hMSCs were culture-expanded in monolayer (˜5,000 cells/well) in 12-well plates. At 80-90% confluence, hMSCs were culture-supplemented with 0, 10, 50 or 100 ng/mL recombinant human connective tissue growth factor (CTGF) (BioVendor, Candler, N.C.) and 50 μg/mL ascorbic acid (Sigma), with conditioned medium change every third day. […] Accordingly, 100 ng/mL CCN2/CTGF was selected for fibroblastic differentiation for in vitro experiments.
# as §1
# [7] = tested on: CCN2/CTGF-treated MSCs (MSC-Fb); test: Osteogenic, chondrogenic and adipogenic differentiation of CCN2/CTGF-treated MSCs (von Kossa, Alizarin Red, Safranin O, Oil-Red O); assay type: cell-based, human
# Protocol: Chondrogenic medium was supplemented with 10 ng/mL transforming growth factor β3 (TGFβ3) (R&D Systems, Minneapolis, Minn.), whereas osteogenic medium was supplemented with 100 nM dexamethasone, 10 mM β-glycerophosphate, and 0.05 mM ascorbic acid-2-phosphate (Sigma) per our prior methods (31, 51). At Days 14 and 28, von Kossa staining and calcium assay was performed to evaluate osteogenic differentiation, whereas safranin O (Saf-O) straining and glycosaminoglycan (GAG) assays were performed to evaluate chondrogenic differentiation (Blyscan™, Biocolor, UK).
# Osteogenic and chondrogenic medium were prepared as described above. Adipogenic medium contained […], 0.5 mM isobutylmethylxanthine, and […] per our prior methods (31, 52, 53). In 4 wks, Alizarin Red, Saf-O, and Oil-Red O staining were performed.
# [8] = 2 and 4 wks of CCN2/CTGF treatment
# [9] = 2 and 4 wks, vs MSCs without CCN2/CTGF
molecule,measurement,setting,value
COC(=O)[C@@]1(O)C[C@H]2O[C@]1(C)n1c3ccccc3c3c4c(c5c6ccccc6n2c5c31)C(=O)NC4 [K252A],keloid cell matrix synthesis,keloid cell,inhibits keloid cell matrix synthesis
"TGFβ1: recombinant human TGFβ1 (R&D Systems), a known stimulant for myofibroblast phenotype",αSMA expression (immunofluorescence),[1]; 5 ng/mL TGFβ1 on CCN2/CTGF-treated MSCs / MSC-derived fibroblastic cells,readily expressed αSMA+ microfilaments
same,cells that gained αSMA phenotype (flow cytometry),[1]; TGFβ1 stimulation of CCN2/CTGF-treated MSCs (MSC-Fb),31.9%
same,cells that gained αSMA phenotype (flow cytometry),[1]; TGFβ1 stimulation of undifferentiated MSCs without prior CCN2/CTGF treatment,1.8%
same,contraction of collagen gel,[2],moderate contraction
B1,αSMA expression (flow cytometry),"[1]; CCN2/CTGF-treated MSCs (MSC-Fb), no TGFβ1",general absence of αSMA; also recorded: absence of αSMA expression
same,αSMA expression (immunofluorescence),"[1]; CCN2/CTGF-treated MSCs, no TGFβ1",did not express αSMA; also recorded: minimal
same,differentiation into fibroblast-like cells (Trichrome),[3],readily differentiated into fibroblast-like cells that are highly Trichrome positive
same,contraction of collagen gel,[2],moderate contraction
same,rescue of calvarial suture from ectopic mineralization,[4]; 50 ng/mL to p10 explant for 25 days,rescued the calvarial suture from undergoing ectopic mineralization
same,rescue of calvarial suture from synostosis,"[4]; 100 ng/mL, ex vivo culture to p35",rescued calvarial suture from undergoing synostosis
same,FSP1 and vimentin expression in calvarial suture,[4]; ex vivo CCN2/CTGF-treated suture,expressed
same,suture width (μCT),"[4]; p35, vs without CCN2/CTGF",significantly greater; also recorded: significantly wider
same,Tn-C (tenascin C) content of sutures,[4]; vs CCN2/CTGF-free sutures,significantly greater; also recorded: significantly more
same,"MSC stemness markers (CD29, CD44, CD105, CD106, CD117, BMPR, Sca1)",[5]; [8],steady decreases; also recorded: gradually attenuated
same,"fibroblastic mRNA markers (collagen types I and III, Tn-C, fibronectin, MMP-1, FSP1, vimentin)",[5]; [8],concomitant increases; also recorded: gradually increased
same,chondrogenic marker collagen type II expression,[5]; CCN2/CTGF-treated MSCs,undetectable
same,myofibroblastic marker αSMA expression (RT-PCR),[5]; CCN2/CTGF-treated MSCs,αSMA negative; also recorded: undetectable
same,osteogenic marker osteopontin expression,[5]; CCN2/CTGF-treated MSCs,undetectable; also recorded: minimally expressed
same,collagen deposition with dose (Goldner's Trichrome staining),"[6]; 0, 10, 50 or 100 ng/mL, 4 wks",increased with increasing CCN2/CTGF doses
same,collagen synthesis,[6]; 10 ng/mL,sufficient to stimulate collagen synthesis
same,collagen synthesis,"[6]; 50 ng/mL and 100 ng/mL, compared with 10 ng/mL",apparently more potent
same,collagen synthesis (Trichrome staining),"[6]; 100 ng/mL, 4 wks, vs MSCs without CCN2/CTGF",induced remarkable collagen synthesis; also recorded: prompted substantial collagen synthesis
same,collagen type I content (ELISA),[6]; [9],significantly greater; also recorded: significantly higher
same,tenascin-C content (ELISA),[6]; [9],significantly greater; also recorded: significantly higher
same,Safranin O staining,[7]; CCN2/CTGF-treated MSCs,negative
same,Von Kossa staining,[7]; CCN2/CTGF-treated MSCs,negative
same,"ability to differentiate into osteogenic, chondrogenic and adipogenic cells","[7]; after 4 wk CCN2/CTGF stimulation (100 ng/mL), vs CCN2/CTGF-free MSCs",diminished ability to differentiate; also recorded: minimal capacity to further differentiate
